{"source": "paper PMC11200239", "target": "MerA variant G415I (P. aeruginosa) (UniProt P00392)", "experiment": "SEC-MALS"}
{"substance": "MerA variant G415I (from UniProt P00392 96-561) (enzyme)", "values": [{"measurement": "stoichiometry N", "value": 2}]}
